Assay: soluble on expression in E. coli; label from the status in PepcDB or PDB records

Sequence | soluble on expression in E. coli
MKFNKSTMEANGDTSACNGYSDKQRKDVRVWCDGCYDMVHFGHANSLRQAKALGDKVIVGIHTDEEITKHKGPPVFTEEERVKMVKGIKWVDEVVLGAPYVTTLDVLDQNNCDFCVHGDDITMTAEGVDTYHLVKSANRYKEVKRTAGVSTTD | not soluble
MFNVDGECVVFTSGGTESNNWVIEGTIRNAKKVSKLPHIITTNIEHPSILEPLKRREEDGEISVTYVSINPLTGFVTSQSILDALTSDTCLVTIMLANNDTGVLQPVSEIFQAIREKLKTNVPFLHSDVAQAAGKIPVNVRSLSADAVTVVGHKFYGPRSGALIFNPKSKRIPPMLLGGNQESGWRSGTENTPMIVGLGEAAKVYNEGFLNIESILRQNRDYFEELLLKRLRNSHIIHFIGSQRLPNTSSVAFLDYPSHGCDLLEKCQTFNASTGAACHKNECSPILKACGIPFAVASKTVRISFGRSTKIAEIETVVDELVQLCSPS | not soluble
MRIPRIYHPEPLTSHSHIALCEDAANHIGRVLRMGPGQALQLFDGSNQVFDAEITSASKKSVEVKVLEGQIDDRESPLHIHLGQVMSRGEKMEFTIQKSIELGVSLITPLFSERCGVKLDSERLNKKLQQWQKIAIAACEQCGRNRVPEIRPAMDLEAWCAEQDEGLKLNLHPRASNSINTLPLPVERVRLLIGPEGGLSADEIAMTARYQFTDILLGPRVLRTETTALTAITALQVRFGDLG | soluble
MGSDKIHHHHHHMSKIKRGVSLYSFQEELFLGRMNVEDCVSFAASIGATGIEILPEQNMPTFPNLSDAQVEEWKAMVARHGCHFTAYDMFLDTKLRKDRLMSDDEQVESIVRDLRLCNRLGIRNMRVLVFVRPDILGRCVPYAEELDVHMGVEVHAPWHLEHAWILRTIEEADRLGTKHLGILPDMGIFMKHYPPAFRARFERQGARPEVTQFIVDQHEAKIMAEYTIYEVAVKMGGNKAEVAMAETLRHAPYANPKRIADYAPYFHHIQAKFYEMDEDCTDPSIAYDEVIDALVGCGWEGTLSSEYEGNRWIQDVHEVDSREQVRRQHVMFERLIVQSEARHAGKEAALCSTST | not soluble
GVSETAPASRRGELAVCDAVSGWVTDRRTAVDLRGREVEVLGEVPAAGGSPLRQYFFETRCKADNAEEGGPGAGGGGCRGVDRRHWVSECKAKQSYVRALTADAQGRVGWRWIRIDTACVCTLLSRTGRA | soluble
MSELSDEEISLQALYDPSKKVIGDIEDGIFSTPELQPRIKTGIDNLQLVTKLVNQMRLFSSNEQIEDVPTNSLPYLLVPCFLGILHQNLMTEPGLKLDELRKSKIYMRNFLDRLRDLCLITTRLPWEDEDTEEQNLKEKPKLAVEEIRRLKLERHKKKQELKMAELRIQKQLEAVSIDEQNLRELYITQLLFWSERCYEELQAIDDELPLLKMMAERASHPHRHPAPPPATKTVPTLKPFIITRDAQQKQVFGLGYPGIPAMSVDEWYHQKFGHNPQNAPQSSAPAGAEAQESEEEVDDDEARAKAMRWDEYKDDHRRGWGNMHNKG | soluble
MGSDKIHHHHHHMIEFDNLTYLHGKPQGTGLLKANPEDFVVVEDLGFEPDGEGEHILVRILKNGCNTRFVADALAKFLKIHAREVSFAGQKDKHAVTEQWLCARVPGKEMPDLSAFQLEGCQVLEYARHKRKLRLGALKGNAFTLVLREVSNRDDVEQRLIDICVKGVPNYFGAQRFGIGGSNLQGAQRWAQTNTPVRDRNKRSFWLSAARSALFNQIVAERLKKADVNQVVDGDALQLAGRGSWFVATTEELAELQRRVNDKELMITAALPGSGEWGTQREALAFEQAAVAAETELQALLVREKVEAARRAMLLYPQQLSWNWWDDVTVEIRFWLPAGSFATSVVRELINTTGDYAHIAE | not soluble
MGSSHHHHHHSSGLVPRGSHMNIPRFGVKTDQEELLAQELENLNKWGLNIFCVSDYAGGRSLTCIMYMIFQERDLLKKFRIPVDTMVTYMLTLEDHYHADVAYHNSLHAADVLQSTHVLLATPALDAVFTDLEILAALFAAAIHDVDHPGVSNQFLINTNSELALMYNDESVLENHHLAVGFKLLQEDNCDIFQNLSKRQRQSLRKMVIDMVLATDMSKHMTLLADLKTMVETKKVTSSGVLLLDNYSDRIQVLRNMVHCADLSNPTKPLELYRQWTDRIMAEFFQQGDRERERGMEISPMCDKHTASVEKSQVGFIDYIVHPLWETWADLVHPDAQEILDTLEDNRDWYYSAI | soluble
MGHHHHHHSHMDADSASQRLVISAPDSQVRFSNIRTNDVAKTPQMHGTEMANSPQPPPLSPHPCDVVDEGVTKTPSTPQSQHFYQMPTPDPLVPSKPMEDRIDSLSQSFPPQYQEAVEPTVYVGTAVNLEEDEANIAWKYYKFPKKKDVEFLPPQLPSDKFKDDPVGPFGQESVTSVTEYVFFLIVTIII | not soluble
MSIITRLFNNSDFEKLNQLCKLYDDLGYPTNENDLKKRLKKITNHDDYFLLLLIKENKIIGLSGMCKMMFYEKNAEYMRILAFVIHSEFRKKGYGKRLLADSEEFSKRLNCKAITLNSGNRNERLSAHKLYSDNGYVSNTSGFTKQL | soluble
MSLGAIVEVITIKNYSLKSENYEAEIDIPKIRGLKDKNLEQRLNSSFMEDGKRLYHQFQERMEKIQSSKNKGYKSLSLSYSVKNNSKKFLSIEMTKNEIEASSYVSKVHYTIDKKRQIVLTLPMLFKDDKYIKVISDNIKEQMREQMKKDSTKSYFIDQKKDLPVEDFKTINKYQDFYFNKNEDLVICFDEYEVAPGYMGAVEFVIPYKVIKDEGHHHHHH | soluble
MGSDKIHHHHHHMRLRRLPVYVDAYKEKPNAEIFIYYSSRGTGKTYDIATVNLERKFSADGGDTLAIRKKKNKTTQSIHKEILELLSIYNLRKFFNISKAKIESKSLIFGKKRAFVFEGGHDTRDLKSYAHFKDLWLEEANQFSADDIEMLVPTMREQGGRIYMSSNPVPKSHWLYKRYLSNQDNPAVCIIKSTYRDNPFLNGGDVQAWLEKQRLAYHGNDIGFRIEVLGEEFDFGTARLIKKFNVCGPEILSRANGSYYTGIHVKGNRICFLEILVGRISYLPVVIITNACSKVLLSKTDYQSEINKFKGVFVLPTAREELKYVFSRFGRGTLLAKKRNLYSLSDYLIPSNLNVVNKPETTDVISEFNETEYYYDESSAEDSEVTNFVMQKDLVYIPAFLNAISVFS | not soluble
MASESAVKDSQPSLDLASATSGDKIVTAQENGKAPDGQTVAGEVMGPQRPRSNSGRELTDEEILASVMIKNLDTGEEIPLSLAEEKLPTGINPLTLHIMRRTKEYVSNDAAQSDDEEKLQSQPTDTDGGRLKQKTTQLKKFLGKSVKRAKHLAEEYGERAINKVKSVRDEVFHTDQDDPSSSDDEGMPYTRPVKFKAAHGFKGPYDFDQIKVVQDLSGEHMGAVWTMKFSHCGRLLASAGQDNVVRIWALKNAFDYFNNMRMKYNTEGRVSPSPSQESLSSSKSDTDTGVCSGTDEDPDDKNAPFRQRPFCKYKGHTADLLDLSWSKNYFLLSSSMDKTVRLWHISRRECLCCFQHIDFVTAIAFHPRDDRYFLSGSLDGKLRLWNIPDKKVALWNEVDGQTKLITAANFCQNGKYAVIGTYDGRCIFYDTEHLKYHTQIHVRSTRGRNKVGRKITGIEPLPGENKILVTSNDSRIRLYDLRDLSLSMKYKGYVNSSSQIKASFSHDFTYLVSGSEDKYVYIWSTYHDLSKFTSVRRDRNDFWEGIKAHNAVVTSAIFAPNPSLMLSLDVQSEKSEGNEKSEDAEVLDATPSGIMKTDNTEVLLSADFTGAIKVFVNKRKNVS | not soluble
MAKTLKTLYQCTECGGTSPKWQGKCPHCGEWNTLQESLAAPEPKNARFQSWAADTSTVQSLSAVTATEVPRNPTGMGELDRVLGGGLVDGAVILLGGDPGIGKSTLLLQTIAKMAQSRKVLYVSGEESAQQVALRAQRLELPTDGVNLLAEIRMEAIQAALKQHQPEVVVIDSIQTMYSDQITSAPGSVSQVRECAAQLTRMAKQMGIAMILVGHVTKDGAIAGPRVLEHMVDTVLYFEGDQHSNYRMIRAIKNRFGAANELGVFAMTENGLKGVSNPSAIFLASYRDDTPGSCVLVTQEGSRPLLVEIQALVDDAHGFTPKRLTVGLEQNRLAMLLAVLNRHGGIACFDQDVFLNAVGGV | not soluble
MEYQFTHSIHGIVAKCSMEHEVFARWLNTEIIGHTQNLHNILAEIEKCRAAFPNHYECVFEGQEYSLYFDCDEVIVKVNNLAMAIDEVIVEEGLQLYDQESVAFCGLEDFERFLQAYHKFSSTYH | not soluble
TQDMELNINANITFQQNKLLSLSGMYNGELISAPEYKSLASLDGAGFHGGYNHIVYQVVGQPLGVFYLPRANGLVSDGNGGYTYDIADLNGGGVSLEDGEDRYVAGQAVPKTILGSNLSFRYKRFDISVQINGAFGHKIYNGTSLTYMNMNIFPDYNVMQEAPARNIKDQTATDYWLENGAYVNFDYVTLGWNVPIEKVQKLKKYVRSLRLAFTVNNLATISGYSGLSPMINSSTVNSTLGLDDKRGYPLARTYTLGLSINF | not soluble
MGSDKIHHHHHHMALLTAETFRLQFNNKRRLRRPYYPRKALLCYQLTPQNGSTPTRGYFENKKKCHAEICFINEIKSMGLDETQCYQVTCYLTWSPCSSCAWELVDFIKAHDHLNLGIFASRLYYHWCKPQQKGLRLLCGSQVPVEVMGFPEFADCWENFVDHEKPLSFNPYKMLEELDKNSRAIKRRLERIKS | not soluble
MDLHELTARLHAIRDRNDWRQFHSPKNLAMAASVEMAELVEIFQWLTEDQSRTLSAEQLEHAGQEVGDIVLYLLLFCGETGLDLEQVVRAKLADCERRFLP | soluble
MITISNEDNMILMSRYPDKYFDLAIVDPPYGILNKTKRGGDYKFNMNEYSQWDIKPDQTYFNELFRVSKNQIIWGGNYFGELWLRSEYNKGFIIWDKNQPETLNNFSMAEMAWSSFDRPSKIFRFSVRKNRNKTHPTQKPVELYQWLLKMYAKQGDKILDTHLGSGTLAIACCIAQFDLTACEINSDYYQQSIEKIKNNLPEARISFGHPGYCIIE | not soluble
MGSDKIHHHHHHMGASAISQQISKLEQELSIRLLQRNAFGVTPTPAGLAFLKHSQLILRQVNFAIDAAHSARLSGHVSLGFPPTITALIGIPLMKLMSERYPDIRLEIVETLSGNLIQSINSRQLDIAIIFTNEIDKQWSIQPLVREQMYLMARKEVLEKYGLSECIKSGIIQSQQIGDIPLVLPRQRHSLRKLLEHKIGQLNVVYEIDGLHLLMDSLIHLDLASVRPGSACLQEYKHKLQLLKVVDPEVERINYLVSLAEEELSPAALAAKSAIKACVKELIQNQIWPCSEIIL | not soluble
MGSDKIHHHHHHMTQFWRDPTLPFVESRRATDSRACYRPHSHPTLSIGVVDRGQSQFQCQRRREWLTPGCLVSVPAGVVHDCNPLPDQPWSYQMLYLEPAWVSEVLDEASAETDAAPTLPSTVFIARDVAPYQAFCRLNALLFSSAPRADKEAGLIEFLGSRLWCHGDAMAVHWPNSSDLDDLQRHLLECLERPPSLEVLARDHGLSRYQVIRLFRRETGLTPHAWLLDRRIQQARRRLCQGVELAELAQELGFADQGHFQRAFKARVAATPGRYRST | not soluble
AHHHHHHGSKTFLTEQQIKVLMLRAKGYKQSEIAKILGTSRANVSILEKRAMEKIEKARNTLLLWEQINSKVIVEIKAGEDIFSIPEKFFKKADKVGVKVPYSTAEIITFLVEHAPVEDRLAKRDFVLFLDSKNKLRIGDCLVIEEIKED | soluble
AIKDAATKLFDPYEILGISTSASDRDIKSAYRKLSVKFHPDKLAKGLTPDEKSVMEETYVQITKAYESLTDELVRQNYLKYGHPDGPQSTSHG | not soluble
MKEIKLILTDIDGVWTDGGMFYDQTGNEWKKFNTSDSAGIFWAHNKGIPVGILTGEKTEIVRRRAEKLKVDYLFQGVVDKLSAAEELCNELGINLEQVAYIGDDLNDAKLLKRVGIAGVPASAPFYIRRLSTIFLEKRGGEGVFREFVEKVLGINLEDFIAVIQ | soluble
